This note sets out measurements from article PMC8034850, “A cell-based screening method using an intracellular antibody for discovering small molecules targeting the translocation protein LMO2” (Science Advances, 2021).

Holding throughout (assay type): cell-based
Experiment [1] concerns the target T1, LMO2-iDAb LMO2dm3 interaction (Homo sapiens, UniProt P25791).
T1 construct: LMO2 cDNA was cloned into the pEF-RLuc8-MCS and pEF-MCS-RLuc8 plasmids; expressed in transfected cells; host or cells: HEK293T
T1 sequence (P25791 1-158): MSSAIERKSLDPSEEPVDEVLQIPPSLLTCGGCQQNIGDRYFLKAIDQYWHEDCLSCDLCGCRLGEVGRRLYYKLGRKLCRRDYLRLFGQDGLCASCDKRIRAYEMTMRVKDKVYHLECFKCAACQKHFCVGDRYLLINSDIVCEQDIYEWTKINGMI
Description: BRET competition / dose-response assay on LMO2-iDAb LMO2dm3. The following applies: HEK-293T, HEK293T, Fig. 4C. How it is done:
(§1) For all BRET experiments (titration curves and competition assays), 650,000 HEK293T were seeded in each well of six-well plates. After 24 hours at 37°C, cells were transfected with a total of 1.6 μg of DNA mix, containing the donor + acceptor ± competitor plasmids, using Lipofectamine 2000 transfection reagent (Thermo Fisher Scientific). For the BRET donor saturation assays, cells were transfected with 0.05 μg of donor (LMO2) and with an increased amount of acceptor plasmid (0.025, 0.05, 0.1, 0.25, 0.5, 0.75, and/or 1 μg of DNA) equalized to a total amount of 1.6 μg of DNA with an empty vector pEF-cyto-myc. […] Cells were detached 24 hours later, washed with phosphate-buffered saline (PBS), and seeded in a white 96-well plate (clear bottom, PerkinElmer, catalog no. 6005181) in Opti-MEM without phenol red medium complemented with 4% FBS, and cells were incubated for an additional 20 to 24 hours at 37°C before the BRET assay reading. […]
(§2) BRET2 signal was determined immediately after injection of coelenterazine 400a substrate (10 μM final concentration) to cells (Cayman Chemicals) using a CLARIOstar instrument (BMG Labtech) with a luminescence module. Total GFP^2 fluorescence was detected with excitation and emission peaks set at 405 and 515 nm, respectively. Total RLuc8 luminescence was measured with the luminescence 400- to 700-nm wavelength filter. […]
A general note: Bioluminescence resonance energy transfer reports proximity on the nanometre scale.

For experiment [2], the target named is T2, LMO2-LDB1 interaction (Homo sapiens, UniProt P25791).
T2 construct: LMO2 cDNA was cloned into the pEF-RLuc8-MCS and pEF-MCS-RLuc8 plasmids; expressed in transfected cells; host or cells: HEK293T
T2 sequence (P25791 1-158): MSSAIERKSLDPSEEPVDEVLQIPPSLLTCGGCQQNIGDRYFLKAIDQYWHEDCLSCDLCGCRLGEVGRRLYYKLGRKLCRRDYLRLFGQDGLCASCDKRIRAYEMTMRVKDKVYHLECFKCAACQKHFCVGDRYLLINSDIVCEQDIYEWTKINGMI
Description: BRET assay on LMO2-LDB1. The following applies: BRET competition, fig. S7E. The procedure:
as §1, §2

Experiment [3] addresses T3, LMO2-TAL1 + E47 interaction (Homo sapiens, UniProt P25791).
T3 construct: LMO2 cDNA was cloned into the pEF-RLuc8-MCS and pEF-MCS-RLuc8 plasmids; expressed in transfected cells; host or cells: HEK293T
T3 sequence (P25791 1-158): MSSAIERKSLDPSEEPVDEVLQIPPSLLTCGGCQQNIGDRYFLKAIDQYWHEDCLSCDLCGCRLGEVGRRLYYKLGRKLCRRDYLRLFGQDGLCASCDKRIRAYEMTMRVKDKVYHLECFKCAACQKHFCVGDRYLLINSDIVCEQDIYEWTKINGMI
Description: BRET assay on LMO2-TAL1 + E47. The following applies: BRET competition, fig. S7D. The procedure:
as §1, §2

Experiment [4] deals with T4, LMO2 (Homo sapiens, UniProt P25791).
T4 construct: LMO2 cDNA was cloned into the pEF-RLuc8-MCS and pEF-MCS-RLuc8 plasmids; expressed in transfected cells; host or cells: HEK293T
T4 sequence (P25791 1-158): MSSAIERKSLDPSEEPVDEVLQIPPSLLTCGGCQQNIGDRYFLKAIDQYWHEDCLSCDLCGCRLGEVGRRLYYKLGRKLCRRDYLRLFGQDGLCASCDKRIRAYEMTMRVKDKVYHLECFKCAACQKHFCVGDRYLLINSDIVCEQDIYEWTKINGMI
In words: Single-dose BRET competition of LMO2-RLuc8 and GFP2-iDAb LMO2dmx by unmutated iDAb LMO2. The following applies: lowest dose of competitor 0.1 μg, label = GFP2-iDAb acceptor, Fig. 2D.

What is called inhibition is the relative decrease from the control value, in per cent. Read a high inhibition as a strong effect. The molecule `COc1ccc(CN2CCN(c3nc(C(=O)Nc4ccc(-n5cccc5)cc4)co3)CC2)cc1` [Abd-L19] displayed an inhibition at 20 µM in experiment [1] of 45%.

B1: iDAb LMO2: intracellular VH single domain antibody binding to LMO2 (antibody, V domains shown)
VH: EVQLLESGGGLVQPGGSLRLSCAASGFSFSHSPMNWVRQAPGKGLEWVSYISYNSSSIYYADSVKGRFTISRDNSKNTLYLQMNSLRAEDTAVYYCARGLTESLELTADWFDYWGQGTLVTVSS
With B1, the “effect of coexpressed nontagged iDAb on LMO2-LDB1 BRET signal” value in experiment [2] is listed as “inhibited BRET signal”. For the same molecule, the “effect of coexpressed nontagged iDAb on LMO2-TAL1 + E47 BRET signal” value in experiment [3] is recorded as “inhibited BRET signal”.

B2: iDAb LMO2dm3: iDAb LMO2 mutant S28G, H31G, S55A, E102A, T107A, chosen for the screen (antibody, V domains shown)
VH: EVQLLESGGGLVQPGGSLRLSCAASGFGFSGSPMNWVRQAPGKGLEWVSYISYNASSIYYADSVKGRFTISRDNSKNTLYLQMNSLRAEDTAVYYCARGLTASLELAADWFDYWGQGTLVTVSS
Take B2: the “percentage inhibition by iDAb LMO2 compared to iDAb Ctl of the interaction of the labelled acceptor iDAb with LMO2” value in experiment [4] is listed as ~ 90%.
